Measurements taken from patent EP4176934A1, “LIPIDIZED COCAINE- AND AMPHETAMINE-REGULATED TRANSCRIPT PEPTIDE ANALOGUES AS ANTI-OBESITY AND NEUROPROTECTIVE AGENTS” (Ustav organicke chemie a biochemie AV CR, v.v.i., priority 2021, dated 2023).
Bridge positions count the residues as written; N and C are the ends. Square brackets hold non-standard residues; d marks the D form. Ends that are not written are not given here. * marks the point of attachment. Palmitoyl = CCCCCCCCCCCCCCCC(=O)*; Myristoyl = CCCCCCCCCCCCCC(=O)*; Nle = CCCC[C@H](N)C(=O)O; Octanoyl = CCCCCCCC(=O)*

Experiments:
[1] = biological target: CARTp binding site in PC12 cells (prospective CARTp receptor) (rat); assay: displacement of 125I-CART(61-102) from PC12 cells, Cheng-Prusoff
[2] = biological target: CARTp binding site in PC12 cells (prospective CARTp receptor) (rat); assay: displacement of 125I-CART(61-102) from PC12 cells; range told of the group, this end tied by Table 2
[3] = biological target: CARTp binding site in PC12 cells (prospective CARTp receptor) (rat); assay: displacement of 125I-CART(61-102) from PC12 cells, relative to CART(61-102)
[4] = Stability in rat plasma measured by ELISA; format: in vitro ADME; conditions: 100 ng.ml^-1, 37 °C, 96 hours, EDTA plasma, compared to CART 2S-S
Procedure: Blank rat pooled EDTA plasma was conditioned in an incubator at 37 °C. Plasma was preheated to reach required temperature and then it was spiked with a solution of CART 2S-S and palm-CART analogues (dissolved in aqueous 0.5% formic acid) to a final concentration 100 ng.ml^-1. Duplicates were taken for ELISA analysis, sampling volume was 50 µL. Samples were immediately transferred to -20 °C.
ELISA kit for CARTp (MyBioSource, San Diego, CA, USA) was used in accordance with manufacturer's directions. In addition, external calibration using palm-CART was used. The rat plasma was applied for the calibration to comprise specific influence of different matrices on the immunoanalysis output.

[5] = biological target: CARTp binding site in PC12 cells (prospective CARTp receptor) (rat); assay: radioligand binding on PC12 cells, 10^-10 M tracer
[6] = biological target: CARTp binding site in PC12 cells (prospective CARTp receptor) (rat); assay: Kd of the radioligand on PC12 cells, used in the Cheng-Prusoff equation; how it was measured is not stated

Molecule	Ki [1] [nM]	Ki [2] [nM]	% binding CART(61-102) [3] [%]	stability in rat plasma [4]	total binding, % of the radioactivity added [5] [%]	Kd [6] [nM]
Palm-CART [74-94, 86-101] (peptide)	1090	1000	0.85			
Palmitoyl-KYGQVP[Nle]ADAGEQCAVRKGARIGKLADCPRGTSCNSFLLKCL (disulfide 14-34, 28-41) [Palm-CART]				higher stability		
Palmitoyl-KYGQVP[Nle]ADAGEQCAVRKGARIGKLADCPRGTSCNSFLLKCL (disulfide 14-34, 28-41) [Palm-CART]	1.43	1	652			
KYGQVPMCDAGEQCAVRKGARIGKLCDCPRGTSCNSFLLKCL (disulfide 14-34, 8-26, 28-41) [CART(61-102)]	9.33		100			
KYGQVPMCDAGEQCAVRKGARIGKLCDCPRGTSCNSFLLKCL (disulfide 14-34, 8-26, 28-41; ends not checked; also: monoiodinated with 125I, residue not given here) [125I-CART(61-102)]					3 to 8	1.49
KYGQVP[Nle]ADAGEQCAVRKGARIGKLADCPRGTSCNSFLLKCL (disulfide 14-34, 28-41) [CART 2S-S]	261		3.5			
Octanoyl-KYGQVP[Nle]ADAGEQCAVRKGARIGKLADCPRGTSCNSFLLKCL (disulfide 14-34, 28-41) [Oct-CART]	76.1		12			
Myristoyl-KYGQVP[Nle]ADAGEQCAVRKGARIGKLADCPRGTSCNSFLLKCL (disulfide 14-34, 28-41) [Myr-CART]	12.1		78			
